Assay results as given in patent US20210324359A1, “USE OF GRAM-NEGATIVE LYSIN-ANTIMICROBIAL PEPTIDE (AMP) POLYPEPTIDE CONSTRUCTS IN TREATING ENDOCARDITIS” (priority 2020, published 2021).

System: P. aeruginosa strain PA453
Assay: Time-kill assay of GN370 in animal blood (Table 34)
Type: cell-based, Pseudomonas aeruginosa
Conditions: for Log10 CFU/mL of P. aeruginosa: limit of detection 1.6
Excerpt: The results are shown below in Table 34, wherein survival is reported as Log10 CFU/mL and wherein the limit of detection was 1.6 Log10 CFU/mL.

B1: GN370: lysin-AMP construct: MIDR, FIRL and NPTH moieties N-terminal to GN202 lysin (SEQ ID NO: 44) (protein)
chain: MIDRFIRLNPTHGPRRPRRPGRRAPVRTSQRGIDLIKSFEGLRLSAYQDSVGVWTIGYGTTRGVTRYMTITVEQAERMLSNDIQRFEPELDRLAKVPLNQNQWDALMSFVYNLGAANLASSTLLDLLNKGDYQGAADQFPHWVNAGGKRLDGLVKRRAAERALFLEPLS
- Log10 CFU/mL of P. aeruginosa (Dog blood, 2 hours, GN370 4 μg/mL): 3.5 Log10 CFU/mL
- Log10 CFU/mL of P. aeruginosa (Dog blood, 2 hours, GN370 20 μg/mL): 1.6 Log10 CFU/mL
- Log10 CFU/mL of P. aeruginosa (Dog blood, 2 hours, GN370 50 μg/mL): 1.6 Log10 CFU/mL
- Log10 CFU/mL of P. aeruginosa (Dog blood, 2 hours, GN370 100 μg/mL): 1.6 Log10 CFU/mL
- Log10 CFU/mL of P. aeruginosa (Dog blood, 2 hours, GN370 200 μg/mL): 1.6 Log10 CFU/mL
- Log10 CFU/mL of P. aeruginosa (Dog blood, 4 hours, GN370 4 μg/mL): 4.7 Log10 CFU/mL
- Log10 CFU/mL of P. aeruginosa (Dog blood, 4 hours, GN370 20 μg/mL): 1.6 Log10 CFU/mL
- Log10 CFU/mL of P. aeruginosa (Dog blood, 4 hours, GN370 50 μg/mL): 1.6 Log10 CFU/mL
- Log10 CFU/mL of P. aeruginosa (Dog blood, 4 hours, GN370 100 μg/mL): 1.6 Log10 CFU/mL
- Log10 CFU/mL of P. aeruginosa (Dog blood, 4 hours, GN370 200 μg/mL): 1.6 Log10 CFU/mL
- Log10 CFU/mL of P. aeruginosa (Dog blood, 24 hours, GN370 4 μg/mL): 7.2 Log10 CFU/mL
- Log10 CFU/mL of P. aeruginosa (Dog blood, 24 hours, GN370 20 μg/mL): 1.6 Log10 CFU/mL
- Log10 CFU/mL of P. aeruginosa (Dog blood, 24 hours, GN370 50 μg/mL): 1.6 Log10 CFU/mL
- Log10 CFU/mL of P. aeruginosa (Dog blood, 24 hours, GN370 100 μg/mL): 1.6 Log10 CFU/mL
- Log10 CFU/mL of P. aeruginosa (Dog blood, 24 hours, GN370 200 μg/mL): 1.6 Log10 CFU/mL
- Log10 CFU/mL of P. aeruginosa (Human blood, 2 hours, GN370 4 μg/mL): 1.6 Log10 CFU/mL
- Log10 CFU/mL of P. aeruginosa (Human blood, 2 hours, GN370 20 μg/mL): 1.6 Log10 CFU/mL
- Log10 CFU/mL of P. aeruginosa (Human blood, 2 hours, GN370 50 μg/mL): 1.6 Log10 CFU/mL
- Log10 CFU/mL of P. aeruginosa (Human blood, 2 hours, GN370 100 μg/mL): 1.6 Log10 CFU/mL
- Log10 CFU/mL of P. aeruginosa (Human blood, 2 hours, GN370 200 μg/mL): 1.6 Log10 CFU/mL
- Log10 CFU/mL of P. aeruginosa (Human blood, 4 hours, GN370 4 μg/mL): 1.6 Log10 CFU/mL
- Log10 CFU/mL of P. aeruginosa (Human blood, 4 hours, GN370 20 μg/mL): 1.6 Log10 CFU/mL
- Log10 CFU/mL of P. aeruginosa (Human blood, 4 hours, GN370 50 μg/mL): 1.6 Log10 CFU/mL
- Log10 CFU/mL of P. aeruginosa (Human blood, 4 hours, GN370 100 μg/mL): 1.6 Log10 CFU/mL
- Log10 CFU/mL of P. aeruginosa (Human blood, 4 hours, GN370 200 μg/mL): 1.6 Log10 CFU/mL
- Log10 CFU/mL of P. aeruginosa (Human blood, 24 hours, GN370 4 μg/mL): 4.1 Log10 CFU/mL
- Log10 CFU/mL of P. aeruginosa (Human blood, 24 hours, GN370 20 μg/mL): 1.6 Log10 CFU/mL
- Log10 CFU/mL of P. aeruginosa (Human blood, 24 hours, GN370 50 μg/mL): 1.6 Log10 CFU/mL
- Log10 CFU/mL of P. aeruginosa (Human blood, 24 hours, GN370 100 μg/mL): 1.6 Log10 CFU/mL
- Log10 CFU/mL of P. aeruginosa (Human blood, 24 hours, GN370 200 μg/mL): 1.6 Log10 CFU/mL
- Log10 CFU/mL of P. aeruginosa (Rabbit blood, 2 hours, GN370 4 μg/mL): 1.6 Log10 CFU/mL
- Log10 CFU/mL of P. aeruginosa (Rabbit blood, 2 hours, GN370 20 μg/mL): 1.6 Log10 CFU/mL
- Log10 CFU/mL of P. aeruginosa (Rabbit blood, 2 hours, GN370 50 μg/mL): 1.6 Log10 CFU/mL
- Log10 CFU/mL of P. aeruginosa (Rabbit blood, 2 hours, GN370 100 μg/mL): 1.6 Log10 CFU/mL
- Log10 CFU/mL of P. aeruginosa (Rabbit blood, 2 hours, GN370 200 μg/mL): 1.6 Log10 CFU/mL
- Log10 CFU/mL of P. aeruginosa (Rabbit blood, 4 hours, GN370 4 μg/mL): 3.0 Log10 CFU/mL
- Log10 CFU/mL of P. aeruginosa (Rabbit blood, 4 hours, GN370 20 μg/mL): 1.6 Log10 CFU/mL
- Log10 CFU/mL of P. aeruginosa (Rabbit blood, 4 hours, GN370 50 μg/mL): 1.6 Log10 CFU/mL
- Log10 CFU/mL of P. aeruginosa (Rabbit blood, 4 hours, GN370 100 μg/mL): 1.6 Log10 CFU/mL
- Log10 CFU/mL of P. aeruginosa (Rabbit blood, 4 hours, GN370 200 μg/mL): 1.6 Log10 CFU/mL
- Log10 CFU/mL of P. aeruginosa (Rabbit blood, 24 hours, GN370 4 μg/mL): 4.9 Log10 CFU/mL
- Log10 CFU/mL of P. aeruginosa (Rabbit blood, 24 hours, GN370 20 μg/mL): 1.6 Log10 CFU/mL
- Log10 CFU/mL of P. aeruginosa (Rabbit blood, 24 hours, GN370 50 μg/mL): 1.6 Log10 CFU/mL
- Log10 CFU/mL of P. aeruginosa (Rabbit blood, 24 hours, GN370 100 μg/mL): 1.6 Log10 CFU/mL
- Log10 CFU/mL of P. aeruginosa (Rabbit blood, 24 hours, GN370 200 μg/mL): 1.6 Log10 CFU/mL
- Log10 CFU/mL of P. aeruginosa (Rat blood, 2 hours, GN370 4 μg/mL): 5.9 Log10 CFU/mL
- Log10 CFU/mL of P. aeruginosa (Rat blood, 2 hours, GN370 20 μg/mL): 6.1 Log10 CFU/mL
- Log10 CFU/mL of P. aeruginosa (Rat blood, 2 hours, GN370 50 μg/mL): 1.6 Log10 CFU/mL
- Log10 CFU/mL of P. aeruginosa (Rat blood, 2 hours, GN370 100 μg/mL): 1.6 Log10 CFU/mL
- Log10 CFU/mL of P. aeruginosa (Rat blood, 2 hours, GN370 200 μg/mL): 1.6 Log10 CFU/mL
- Log10 CFU/mL of P. aeruginosa (Rat blood, 4 hours, GN370 4 μg/mL): 7.0 Log10 CFU/mL
- Log10 CFU/mL of P. aeruginosa (Rat blood, 4 hours, GN370 20 μg/mL): 6.2 Log10 CFU/mL
- Log10 CFU/mL of P. aeruginosa (Rat blood, 4 hours, GN370 50 μg/mL): 3.7 Log10 CFU/mL
- Log10 CFU/mL of P. aeruginosa (Rat blood, 4 hours, GN370 100 μg/mL): 1.6 Log10 CFU/mL
- Log10 CFU/mL of P. aeruginosa (Rat blood, 4 hours, GN370 200 μg/mL): 1.6 Log10 CFU/mL
- Log10 CFU/mL of P. aeruginosa (Rat blood, 24 hours, GN370 4 μg/mL): 7.9 Log10 CFU/mL
- Log10 CFU/mL of P. aeruginosa (Rat blood, 24 hours, GN370 20 μg/mL): 7.8 Log10 CFU/mL
- Log10 CFU/mL of P. aeruginosa (Rat blood, 24 hours, GN370 50 μg/mL): 7.6 Log10 CFU/mL
- Log10 CFU/mL of P. aeruginosa (Rat blood, 24 hours, GN370 100 μg/mL): 3.6 Log10 CFU/mL
- Log10 CFU/mL of P. aeruginosa (Rat blood, 24 hours, GN370 200 μg/mL): 1.6 Log10 CFU/mL
- activity in dog, human, and rabbit blood (time-kill) (all times, 20-200 μg/mL, strain PA453): high activity
- activity in rat blood (time-kill) (majority of the times and concentrations tested, strain PA453): poor or no activity
